Laboratory results from patent publication US20220332804A1 (CSL INNOVATION, published 2022).

What was measured:
Test in all cases: SPR, KD relative to WT C2;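 further: biacore SPR at 37 °C, anti-C2 mAbs captured on anti-human IgG chips with alanine or serine point mutants of C2 as analyte, KD from 1:1 fit compared with wild-type C2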
human C2 N471A = biological target: T1, human C2 N471A (human, UniProt P06681 21-752)
T1 sequence: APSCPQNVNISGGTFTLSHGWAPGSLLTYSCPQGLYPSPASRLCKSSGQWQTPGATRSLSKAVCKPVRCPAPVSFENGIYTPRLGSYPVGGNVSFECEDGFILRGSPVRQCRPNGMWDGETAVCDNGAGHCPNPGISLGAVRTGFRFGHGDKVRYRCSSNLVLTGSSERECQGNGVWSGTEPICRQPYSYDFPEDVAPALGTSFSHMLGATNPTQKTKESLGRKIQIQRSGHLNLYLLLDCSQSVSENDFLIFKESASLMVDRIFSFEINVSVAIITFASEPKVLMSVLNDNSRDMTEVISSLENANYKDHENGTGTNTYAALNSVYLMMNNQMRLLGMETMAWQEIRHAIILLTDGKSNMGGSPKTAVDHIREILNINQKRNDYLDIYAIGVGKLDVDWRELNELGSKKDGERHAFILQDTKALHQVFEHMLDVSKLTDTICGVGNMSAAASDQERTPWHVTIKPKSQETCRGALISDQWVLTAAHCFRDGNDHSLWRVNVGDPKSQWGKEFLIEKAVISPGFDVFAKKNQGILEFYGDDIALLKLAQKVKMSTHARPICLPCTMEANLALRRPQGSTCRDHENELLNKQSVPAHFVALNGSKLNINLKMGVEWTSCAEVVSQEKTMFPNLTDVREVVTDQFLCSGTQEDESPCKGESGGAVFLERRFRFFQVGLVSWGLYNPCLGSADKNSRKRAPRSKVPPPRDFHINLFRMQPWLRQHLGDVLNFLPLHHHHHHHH

human C2 H331A = biological target: T2, human C2 H331A (human, UniProt P06681 21-752)
T2 sequence: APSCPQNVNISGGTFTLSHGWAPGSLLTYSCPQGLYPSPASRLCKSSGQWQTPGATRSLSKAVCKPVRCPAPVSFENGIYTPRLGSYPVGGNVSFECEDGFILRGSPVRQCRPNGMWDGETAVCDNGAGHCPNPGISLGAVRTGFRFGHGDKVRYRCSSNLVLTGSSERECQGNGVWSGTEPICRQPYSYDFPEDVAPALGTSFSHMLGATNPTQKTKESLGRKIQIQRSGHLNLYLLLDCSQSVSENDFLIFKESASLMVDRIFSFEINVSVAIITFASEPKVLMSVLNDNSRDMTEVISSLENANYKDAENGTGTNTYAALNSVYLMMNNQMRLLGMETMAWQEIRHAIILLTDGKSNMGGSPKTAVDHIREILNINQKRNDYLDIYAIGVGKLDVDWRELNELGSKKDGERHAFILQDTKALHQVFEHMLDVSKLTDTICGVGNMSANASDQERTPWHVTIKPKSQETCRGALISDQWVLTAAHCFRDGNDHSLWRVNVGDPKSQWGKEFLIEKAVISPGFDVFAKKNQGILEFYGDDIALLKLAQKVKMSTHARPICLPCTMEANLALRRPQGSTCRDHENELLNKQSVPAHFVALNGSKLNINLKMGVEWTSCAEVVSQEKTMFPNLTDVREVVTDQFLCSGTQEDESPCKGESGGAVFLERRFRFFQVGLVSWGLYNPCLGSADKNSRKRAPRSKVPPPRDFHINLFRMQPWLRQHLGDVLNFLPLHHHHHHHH

human C2 V418A = biological target: T3, human C2 V418A (human, UniProt P06681 21-752)
T3 sequence: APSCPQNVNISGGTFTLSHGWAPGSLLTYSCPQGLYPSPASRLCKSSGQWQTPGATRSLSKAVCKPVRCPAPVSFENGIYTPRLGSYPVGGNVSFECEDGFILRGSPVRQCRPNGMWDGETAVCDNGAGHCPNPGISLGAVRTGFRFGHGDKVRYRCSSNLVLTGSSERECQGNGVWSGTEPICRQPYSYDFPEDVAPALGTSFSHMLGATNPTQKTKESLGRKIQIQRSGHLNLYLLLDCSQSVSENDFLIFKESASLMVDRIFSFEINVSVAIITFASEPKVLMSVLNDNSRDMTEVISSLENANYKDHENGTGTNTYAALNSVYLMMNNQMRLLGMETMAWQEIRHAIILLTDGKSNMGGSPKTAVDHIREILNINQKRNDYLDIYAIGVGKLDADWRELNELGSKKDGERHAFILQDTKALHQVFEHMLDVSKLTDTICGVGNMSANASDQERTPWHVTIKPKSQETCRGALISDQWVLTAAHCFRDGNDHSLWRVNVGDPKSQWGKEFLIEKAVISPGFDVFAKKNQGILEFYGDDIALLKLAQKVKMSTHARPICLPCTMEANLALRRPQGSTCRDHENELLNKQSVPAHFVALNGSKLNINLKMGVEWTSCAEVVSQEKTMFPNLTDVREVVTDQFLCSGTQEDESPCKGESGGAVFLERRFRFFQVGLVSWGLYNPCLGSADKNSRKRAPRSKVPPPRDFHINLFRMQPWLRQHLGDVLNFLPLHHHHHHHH

human C2 I438A = biological target: T4, human C2 I438A (human, UniProt P06681 21-752)
T4 sequence: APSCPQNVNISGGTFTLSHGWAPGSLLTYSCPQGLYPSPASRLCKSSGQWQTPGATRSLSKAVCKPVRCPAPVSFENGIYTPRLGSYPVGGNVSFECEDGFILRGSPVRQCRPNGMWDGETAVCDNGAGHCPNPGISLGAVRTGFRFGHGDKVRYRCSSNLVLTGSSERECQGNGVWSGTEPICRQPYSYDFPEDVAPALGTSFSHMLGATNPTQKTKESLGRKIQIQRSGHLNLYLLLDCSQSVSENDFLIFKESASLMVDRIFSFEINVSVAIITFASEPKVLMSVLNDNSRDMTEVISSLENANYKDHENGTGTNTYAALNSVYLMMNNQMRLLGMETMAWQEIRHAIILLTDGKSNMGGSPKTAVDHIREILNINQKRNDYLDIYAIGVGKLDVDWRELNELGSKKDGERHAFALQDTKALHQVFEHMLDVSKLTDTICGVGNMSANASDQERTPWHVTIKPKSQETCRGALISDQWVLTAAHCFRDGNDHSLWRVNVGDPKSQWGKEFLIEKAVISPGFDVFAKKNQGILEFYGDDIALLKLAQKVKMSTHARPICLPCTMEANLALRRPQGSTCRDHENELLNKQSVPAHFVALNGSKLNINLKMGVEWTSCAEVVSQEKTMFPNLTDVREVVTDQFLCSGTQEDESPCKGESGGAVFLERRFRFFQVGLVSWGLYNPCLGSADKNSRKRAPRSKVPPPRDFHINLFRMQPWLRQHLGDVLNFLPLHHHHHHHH

B1: RF16-242 (antibody, human IgG4 S228P, lambda, V domains shown)
VH: EVQLLQSGAEVKKPGESLKISCKGSGYSFTSYWIGWVRQMPGKGLEWMGIIYPGDSDTRYSPSFQGQVTISADKSISTAYLQWSSLKASDTAMYYCARRGHYGDYFDYWGQGTLVTVSS
VL: SYELTQPPSVSVSPGQTARITCSGDALPKKYAYWYHQKSGQAPVLVIYEDRRRPSEIPERFSGSSSGTMATLTITGAQVEDEGVYFCYSRDRAGNQRVFGGGTQLTVLG
notes: pH-dependent anti-C2 antibody from a phage display library
Human C2 N471A
  Fold diff: 1 fold
Human C2 H331A
  Fold diff: 27 fold
Human C2 V418A
  Fold diff: 1 fold
Human C2 I438A
  Fold diff: 1 fold
